Reference: patent publication US20100111941A1, “METHODS FOR TREATING CANCER” (priority 2006, published 2010)

What was measured:
[1] = tested on: HCT116 tumor xenografts (human colorectal cancer cells); conditions: for tumor weight reduced by, compared to vehicle control: day 14, rNAPc2/pro 300 μg/kg daily IP, 5-FU 10 mg/kg every-other-day IP, AVASTIN 0.5 mg/kg twice-weekly IP, 14 days, 6 mice/group
Protocol: To determine the effect of rNAPc2/pro in combination with 5-fluorouracil (5-FU) in colorectal cancer, a murine xenograft colorectal tumor model was used. Human colorectal cancer cells (HCT116) were cultured in DMEM medium supplemented with 10% fetal bovine serum (FBS), harvested at log growth phase, enumerated and resuspended in HBSS buffer. Eight to ten week old female nude mice (NU/NU) were inoculated subcutaneously with 1×10^7 cells/mouse in a volume of 100 μl. Tumors were allowed to develop to an average size of 50 to 100 mm^3 before the treatment started (defined as day 0). HCT116 tumor xenograft-bearing mice were randomized into various treatment conditions and the treatment regimens lasted for 14 days.
The mice were treated as follows (6 mice/group):
2)rNAPc2/pro (300 μg/kg, daily IP injection for 14 days);
3) LOVENOX® (1.5 mg/kg, daily IP injection for 14 days);
4) 5-FU (10 mg/kg, every-other-day IP injection for 14 days);
5) AVASTIN® (0.5 mg/kg, twice-weekly IP injection for 14 days);
10) LOVENOX®+AVASTIN®; and
The mice were monitored every-other-day for body weight, signs of morbidity (i.e., hemorrhage) and mortality. On day 14, mice were extirpated for HCT116 tumor xenografts and the tumors were weighed and measured. Tumor size was calculated as follows: tumor volume (size)=(length)×(width^2)/2 (mm^3).

[2] = tested on: Human colorectal cancer cells (HCT116); test: murine colorectal cancer-hepatic metastasis mouse model (HCT116); assay type: in vivo, nude mice (NU/NU); conditions: for Hepatic metastasis-free events: rNAPc2/pro 300 μg/kg daily IP for 28 days, CPT-11 100 mg/kg once-weekly IP for 4 weeks, livers removed day 42, 8 mice/group
Protocol: To determine the effect of rNAPc2/pro in treating hepatic tumor metastasis, a murine colorectal cancer-hepatic metastasis mouse model was used.
(§1) The mice were treated as follows (8 mice/group):
2) HCT116/vehicle control;
3) HCT116/rNAPc2/pro (300 μg/kg, daily IP injection for 28 days);
4) HCT116/CPT-11 (100 mg/kg, once-weekly IP injection for 4 weeks); and
On day 42, the livers were surgically removed, weighed and the number of liver surface metastases were counted in a blinded fashion. The other internal organs were examined for signs of hemorrhage. […] In some of the mice, no hepatic metastases were observed (Table 2).

[3] = tested on: lung carcinoma tumors and melanoma tumors; conditions: mouse models; Hembrough et al., Cancer Res. 63:2997-3000 (2003); cited from earlier work
angiogenesis = conditions: Hembrough et al., Cancer Res. 63:2997-3000 (2003); cited from earlier work
fVIIa/TF complex = molecular target: T1, fVIIa/TF complex (Homo sapiens, UniProt P08709+P13726); conditions: when fXa, or a catalytically active or inactive derivative thereof, is present; cited from earlier work
T1 construct: Lyophilized, purified, recombinant human fVlla is reconstituted in HBS

[4] = tested on: intestinal adenomas and adenocarcinomas; test: murine spontaneous intestinal neoplasia mouse model (Min mouse)
Protocol: To determine the effect of rNAPc2/pro in treating intestinal adenomas and adenocarcinomas, a murine spontaneous intestinal neoplasia mouse model was used: the Min mouse (The Jackson Laboratory, Bar Harbor, Me., USA).
Four to five week old Apc^Min/+ or syngenic wild-type control (age- and sex-matched) were randomized into various treatment conditions and the treatment regimens lasted for 10 to 11 weeks.
The mice were treated as follows:
1) Wild-type/vehicle control (3 mice);
2) Wild-type/rNAPc2/pro (100 μg/kg, daily IP injection) (3 mice);
3) Apc^Min/+/vehicle control (6 mice);
4) Apc^Min/+/rNAPc2/pro (6 mice); and
5) Apc^Min/+/LOVENOX® (500 μg/kg, daily IP injection) (6 mice).
The mice were monitored every-other-day for body weight, signs of morbidity (i.e. hemorrhage) and mortality. On week 16, the intestines were removed, separated into proximal, middle and distal small intestine and colon, formed into “Swiss rolls” and processed for analysis. Mice were injected with 4 mg/mouse BrdU 2 h prior to harvest.

[5] = tested on: Murine colorectal cancer cells (CT26); test: murine colorectal cancer-pulmonary metastasis mouse model (CT26); assay type: in vivo, BALB/c mice; conditions: for Number of mice with no observable lung surface metastases: 8 mice/group
Protocol: To determine the effect of rNAPc2/pro in treating pulmonary tumor metastasis, a murine colorectal cancer-pulmonary metastasis mouse model was used. […] Nine to eleven week old female syngenic BALB/c mice were inoculated via tail vein injection with 1×10^6 cells/mouse in a volume of 100 μl (defined as day 0).
as §1
3) CT26/rNAPc2/pro (10 μg/kg/day);
4) CT26/rNAPc2/pro (30 μg/kg/day);
5) CT26/rNAPc2/pro (100 μg/kg/day);
6) CT26/rNAPc2/pro (300 μg/kg/day);
7) CT26/rNAPc2/pro (1 mg/kg/day);
8) CT26/rNAPc2/pro (2.5 mg/kg/day); and
9) CT26/LOVENOX® (1.5 mg/kg/day, IP injection).
On day 11, the lungs were surgically removed, weighed and the number of lung surface metastases were counted in a blinded fashion. The other internal organs were examined for signs of hemorrhage. […] In some of the mice, no lung surface metastases were observed (Table 1). rNAPc2/pro was well-tolerated up to 2.5 mg/kg/day in mice with no hemorrhage-related mortality. […] No significant difference in animal body weight was observed between all experimental groups.

Factor Xa = molecular target: T2, Factor Xa (Homo sapiens, UniProt P00742); conditions: selective = at least 10-fold higher potency than on related enzymes; cited from earlier work
T2 construct: made in house
T2 sequence (P00742 235-488 limits assumed): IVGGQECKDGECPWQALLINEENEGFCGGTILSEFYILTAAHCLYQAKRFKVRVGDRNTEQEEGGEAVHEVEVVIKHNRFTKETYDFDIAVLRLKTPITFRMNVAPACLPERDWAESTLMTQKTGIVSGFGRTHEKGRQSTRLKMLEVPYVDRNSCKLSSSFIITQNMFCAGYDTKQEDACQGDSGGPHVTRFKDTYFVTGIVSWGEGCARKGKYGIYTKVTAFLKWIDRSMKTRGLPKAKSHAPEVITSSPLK
T2 sequence (P00742 41-179 limits assumed): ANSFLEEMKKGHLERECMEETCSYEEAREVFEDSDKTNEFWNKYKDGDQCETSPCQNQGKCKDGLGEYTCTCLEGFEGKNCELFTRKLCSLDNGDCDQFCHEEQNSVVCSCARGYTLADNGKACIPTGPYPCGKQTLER

T1 sequence (P08709 213-466 limits assumed): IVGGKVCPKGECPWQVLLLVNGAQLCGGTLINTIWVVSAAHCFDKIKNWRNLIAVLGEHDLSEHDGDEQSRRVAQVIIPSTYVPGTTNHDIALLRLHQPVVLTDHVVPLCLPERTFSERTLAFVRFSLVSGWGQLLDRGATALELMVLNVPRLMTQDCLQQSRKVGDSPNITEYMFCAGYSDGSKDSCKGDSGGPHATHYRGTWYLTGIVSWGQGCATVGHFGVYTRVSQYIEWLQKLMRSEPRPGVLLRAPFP
T1 sequence (P08709 61-212 limits assumed): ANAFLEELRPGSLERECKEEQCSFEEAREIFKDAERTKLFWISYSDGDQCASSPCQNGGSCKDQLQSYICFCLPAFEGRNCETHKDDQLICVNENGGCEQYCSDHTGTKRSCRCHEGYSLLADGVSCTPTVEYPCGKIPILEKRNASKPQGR
T1 sequence (P13726 33-295): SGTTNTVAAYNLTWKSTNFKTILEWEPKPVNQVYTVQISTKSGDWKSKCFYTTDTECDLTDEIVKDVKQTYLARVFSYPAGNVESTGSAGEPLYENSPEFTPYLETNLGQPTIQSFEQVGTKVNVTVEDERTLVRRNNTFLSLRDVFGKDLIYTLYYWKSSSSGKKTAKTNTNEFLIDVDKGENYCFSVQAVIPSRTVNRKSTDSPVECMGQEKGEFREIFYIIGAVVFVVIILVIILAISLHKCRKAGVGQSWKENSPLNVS
T1 sequence (P00742 235-488 partner limits assumed): as the sequence (P00742 235-488 limits assumed) above
T1 sequence (P00742 41-179 partner limits assumed): as the sequence (P00742 41-179 limits assumed) above

In the case of `O=c1[nH]cc(F)c(=O)[nH]1` [5-FU, 5-fluorouracil, reference compound], the “tumor weight reduced by, compared to vehicle control” value [1] is reported as 41%.

In the case of `CCc1c2c(nc3ccc(OC(=O)N4CCC(N5CCCCC5)CC4)cc13)-c1cc3c(c(=O)n1C2)COC(=O)[C@]3(O)CC` [CPT-11, irinotecan, reference compound], the Hepatic metastasis-free events [2] is reported as 0%.

For “AVASTIN®: anti-VEGF antibody bevacizumab (Genentech) [reference compound]”, the “tumor weight reduced by, compared to vehicle control” value [1] was 63%.

For “TFPI: reported with rNAPc2 by Hembrough et al. to decrease tumor growth in mouse models [reference compound]”, the “growth of lung carcinoma tumors and melanoma tumors” value [3] is listed as “allegedly decrease the growth”.

B1: rNAPc2: recombinant protein of the NAP family, single chain, non-glycosylated 85 amino acid protein (SEQ ID NO: 3) (protein, listed as Ancylostoma caninum)
chain: KATMQCGENEKYDSCGSKECDKKCKYDGVEEEDDEEPNVPCLVRVCHQDCVCEEGFYRNKDDKCVSAEDCELDNMDFIYPGTRN
In the case of B1, the “growth of lung carcinoma tumors and melanoma tumors” value [3] is given as “allegedly decrease the growth”, the inhibition of angiogenesis (angiogenesis) is given as “potent inhibitor of angiogenesis” and the “selective inhibition of the fVIIa/TF complex” value (fVIIa/TF complex) is given as “selective inhibition of the fVIIa/TF complex”. For the same molecule, the “formation of intestinal adenomas and adenocarcinomas” value ([4]; Apc^Min/+ mice, 100 μg/kg daily IP, long-term administration (10 to 11 weeks), analysis on week 16) was “suppressed formation of intestinal adenomas and adenocarcinomas” and the “tolerability (major hemorrhage or other adverse effects)” value ([4]; dosing regimens used in these studies, recipient mice) was “well-tolerated up to a three month period”.

B2: rNAPc2/pro: recombinant protein having the amino acid sequence of rNAPc2 modified to add a proline residue to the C-terminus (SEQ ID NO: 4) (protein, listed as Ancylostoma caninum)
chain: KATMQCGENEKYDSCGSKECDKKCKYDGVEEEDDEEPNVPCLVRVCHQDCVCEEGFYRNKDDKCVSAEDCELDNMDFIYPGTRNP
For B2, the “tumor weight reduced by, compared to vehicle control” value [1] was 31%, the “tolerability (hemorrhage or other adverse effects)” value ([1]; doses and dosing regimens of rNAPc2/pro used in the murine model of colorectal cancer) was “well tolerated by the recipient mice without major complications of hemorrhage or other adverse effects” and the “Number of mice with no observable lung surface metastases” value ([5]; 10 μg/kg/day, day 11) was 1. The “Number of mice with no observable lung surface metastases” value ([5]; 30 μg/kg/day, day 11) was 0, the “Number of mice with no observable lung surface metastases” value ([5]; 100 μg/kg/day, day 11) was 1 and the “Number of mice with no observable lung surface metastases” value ([5]; 300 μg/kg/day, day 11) was 1. The “Number of mice with no observable lung surface metastases” value ([5]; 1 mg/kg/day, day 11) was 0, the “local hemorrhage in internal organs” value ([5]; 2.5 mg/kg rNAPc2/pro, 1.5 mg/kg LOVENOX, some of the mice) was “some local hemorrhage was noticed in internal organs” and the “Number of mice with no observable lung surface metastases” value ([5]; 2.5 mg/kg/day, day 11) was 1. The “number of lung surface metastases” value ([5]; compared to saline control mice, dose-dependent (10 μg/kg/day to 2.5 mg/kg/day), day 11, FIG. 8) was “reduced the number of lung surface metastases”, the lung mass ([5]; compared to saline control mice, dose-dependent, day 11, FIG. 9) was “reduced lung mass” and the “dose well-tolerated with no hemorrhage-related mortality” value ([5]; mice, 11 days of treatment) was “up to 2.5 mg/kg/day”. For the same molecule, the “number of liver surface metastases” value ([2]; 300 μg/kg daily IP for 28 days, compared to vehicle control mice, day 42, FIG. 10) was “reduced the number of liver surface metastases”, the liver mass ([2]; 300 μg/kg daily IP for 28 days, compared to vehicle control mice, day 42, FIG. 11) was “reduced liver mass” and the Hepatic metastasis-free events [2] was 0%. The “effect with CPT-11 in inhibiting hepatic metastases” value ([2]; rNAPc2/pro 300 μg/kg daily IP in combination with CPT-11 100 mg/kg once-weekly IP) was “synergistic effect” and the “selective inhibition of the fVIIa/TF complex” value (fVIIa/TF complex) was “selective inhibition of the fVIIa/TF complex”.

B3: NAP6: 75-amino acid NAP protein (SEQ ID NO: 2) originally isolated from the hookworm Ancylostoma caninum (protein, listed as Ancylostoma caninum)
chain: LAYPECGENEWLDVCGTKKPCEAKCSEEEEEDPICRSFSCPGPAACVCEDGFYRDTVIGDCVKEEECDQHEIIHV
In the case of B3, the “selective inhibition of Factor Xa” value (Factor Xa) is listed as “selective inhibition of Factor Xa”.

B4: NAP5: 77-amino acid NAP protein (SEQ ID NO: 1) originally isolated from the hookworm Ancylostoma caninum (protein, listed as Ancylostoma caninum)
chain: KAYPECGENEWLDDCGTQKPCEAKCNEEPPEEEDPICRSRGCLLPPACVCKDGFYRDTVIGDCVREEECDQHEIIHV
For B4, the “selective inhibition of Factor Xa” value (Factor Xa) is given as “selective inhibition of Factor Xa”.
